Paper PMC5036782 (Biophysics, 2011)

What was measured:
Test in all cases: NMR titration; 1H-13C HSQC of selectively [13C]-methyl-Met labelled CaM or variant, Ca2+-bound form compared with the complex with skMLCKp; 20 mM phosphate, 100 mM KCl, 10 mM CaCl2, pH 7.0, 25°C, about 0.6 mM protein, 800 MHz
Details in all cases: both partners purified
[1] = biological target: CCMΔ4, chicken calmodulin lacking the last four residues (M145 to K148) (chicken, UniProt P62149 1-145)
[2] = biological target: intact chicken calmodulin (CCM0) (chicken, UniProt P62149 1-149)
[3] = biological target: CCMΔ5, chicken calmodulin lacking the last five residues (M144 to K148) (chicken, UniProt P62149 1-144)

Measured: binding result

B1: skMLCKp, 26-residue peptide encompassing the CaM-binding region of skeletal muscle myosin light-chain kinase (peptide)
peptide: KRRWKKNFIAVSAANRFKKISSSGAL
binds: all assays above
